IntAct's records for PubMed 31515488

B1: Notch homolog 2 N-terminal-like protein A (Homo sapiens), Q7Z3S9 (parent)
chain: MCVTYHNGTGYCKCPEGFLGEYCQHRDPCEKNRCQNGGTCVAQAMLGKATCRCASGFTGEDCQYSTSHPCFVSRPCLNGGTCHMLSRDTYECTCQVGFTGKECQWTDACLSHPCANGSTCTTVANQFSCKCLTGFTGQKCETDVNECDIPGHCQHGGTCLNLPGSYQCQCLQGFTGQYCDSLYVPCAPSPCVNGGTCRQTGDFTFECNCLPETVRRGTELWERDREVWNGKEHDEN
partner: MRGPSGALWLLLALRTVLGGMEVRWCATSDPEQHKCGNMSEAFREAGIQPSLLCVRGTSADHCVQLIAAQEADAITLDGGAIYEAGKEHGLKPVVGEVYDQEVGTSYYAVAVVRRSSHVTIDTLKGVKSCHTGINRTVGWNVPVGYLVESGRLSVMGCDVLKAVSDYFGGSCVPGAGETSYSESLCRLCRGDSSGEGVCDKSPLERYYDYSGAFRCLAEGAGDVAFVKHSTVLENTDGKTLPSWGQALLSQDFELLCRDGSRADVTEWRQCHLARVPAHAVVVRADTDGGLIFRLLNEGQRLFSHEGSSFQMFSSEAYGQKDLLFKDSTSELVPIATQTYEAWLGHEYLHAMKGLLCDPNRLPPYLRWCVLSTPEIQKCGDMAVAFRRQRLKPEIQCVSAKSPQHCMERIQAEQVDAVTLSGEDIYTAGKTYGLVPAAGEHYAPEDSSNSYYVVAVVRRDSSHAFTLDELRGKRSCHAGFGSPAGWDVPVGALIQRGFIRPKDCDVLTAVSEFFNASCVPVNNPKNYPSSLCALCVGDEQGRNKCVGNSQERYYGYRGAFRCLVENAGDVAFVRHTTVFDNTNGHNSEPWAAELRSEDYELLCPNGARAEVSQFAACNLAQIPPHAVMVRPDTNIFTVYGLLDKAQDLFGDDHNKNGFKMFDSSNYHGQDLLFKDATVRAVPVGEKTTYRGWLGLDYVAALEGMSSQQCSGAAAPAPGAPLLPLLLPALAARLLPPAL
B2: Zinc finger and BTB domain-containing protein 9 (Homo sapiens), Q96C00 (parent)
chain: METPTPLPPVPASPTCNPAPRTIQIEFPQHSSSLLESLNRHRLEGKFCDVSLLVQGRELRAHKAVLAAASPYFHDKLLLGDAPRLTLPSVIEADAFEGLLQLIYSGRLRLPLDALPAHLLVASGLQMWQVVDQCSEILRELETSGGGISARGGNSYHALLSTTSSTGGWCIRSSPFQTPVQSSASTESPASTESPVGGEGSELGEVLQIQVEEEEEEEEDDDDEDQGSATLSQTPQPQRVSGVFPRPHGPHPLPMTATPRKLPEGESAPLELPAPPALPPKIFYIKQEPFEPKEEISGSGTQPGGAKEETKVFSGGDTEGNGELGFLLPSGPGPTSGGGGPSWKPVDLHGNEILSGGGGPGGAGQAVHGPVKLGGTPPADGKRFGCLCGKRFAVKPKRDRHIMLTFSLRPFGCGICNKRFKLKHHLTEHMKTHAGALHACPHCGRRFRVHACFLRHRDLCKGQGWATAHWTYK
B3: E3 ubiquitin-protein ligase MARCHF5 (Homo sapiens), Q9NX47 (parent)
chain: MPDQALQQMLDRSCWVCFATDEDDRTAEWVRPCRCRGSTKWVHQACLQRWVDEKQRGNSTARVACPQCNAEYLIVFPKLGPVVYVLDLADRLISKACPFAAAGIMVGSIYWTAVTYGAVTVMQVVGHKEGLDVMERADPLFLLIGLPTIPVMLILGKMIRWEDYVLRLWRKYSNKLQILNSIFPGIGCPVPRIPAEANPLADHVSATRILCGALVFPTIATIVGKLMFSSVNSNLQRTILGGIAFVAIKGAFKVYFKQQQYLRQAHRKILNYPEQEEA
B4: Isoform 1 of Cell division control protein 45 homolog (Homo sapiens), O75419-1 (parent)
chain: MFVSDFRKEFYEVVQSQRVLLFVASDVDALCACKILQALFQCDHVQYTLVPVSGWQELETAFLEHKEQFHYFILINCGANVDLLDILQPDEDTIFFVCDTHRPVNVVNVYNDTQIKLLIKQDDDLEVPAYEDIFRDEEEDEEHSGNDSDGSEPSEKRTRLEEEIVEQTMRRRQRREWEARRRDILFDYEQYEYHGTSSAMVMFELAWMLSKDLNDMLWWAIVGLTDQWVQDKITQMKYVTDVGVLQRHVSRHNHRNEDEENTLSVDCTRISFEYDLRLVLYQHWSLHDSLCNTSYTAARFKLWSVHGQKRLQEFLADMGLPLKQVKQKFQAMDISLKENLREMIEESANKFGMKDMRVQTFSIHFGFKHKFLASDVVFATMSLMESPEKDGSGTDHFIQALDSLSRSNLDKLYHGLELAKKQLRATQQTIASCLCTNLVISQGPFLYCSLMEGTPDVMLFSRPASLSLLSKHLLKSFVCSTKNRRCKLLPLVMAAPLSMEHGTVTVVGIPPETDSSDRKNFFGRAFEKAAESTSSRMLHNHFDLSVIELKAEDRSKFLDALISLLS
partner: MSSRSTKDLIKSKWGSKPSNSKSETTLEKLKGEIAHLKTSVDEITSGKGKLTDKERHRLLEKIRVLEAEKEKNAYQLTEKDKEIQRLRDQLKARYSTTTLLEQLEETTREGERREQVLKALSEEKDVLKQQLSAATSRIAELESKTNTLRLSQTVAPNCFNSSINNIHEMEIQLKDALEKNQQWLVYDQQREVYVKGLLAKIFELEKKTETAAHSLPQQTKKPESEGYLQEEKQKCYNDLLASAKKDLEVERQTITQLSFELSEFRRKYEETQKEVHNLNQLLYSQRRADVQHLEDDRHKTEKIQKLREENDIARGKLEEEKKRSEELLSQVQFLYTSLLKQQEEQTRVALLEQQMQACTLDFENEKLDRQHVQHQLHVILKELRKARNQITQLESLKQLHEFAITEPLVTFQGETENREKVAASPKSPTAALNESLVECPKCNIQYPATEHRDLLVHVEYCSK
B5: Scaffold protein ILK (Homo sapiens), Q13418 (parent)
chain: MDDIFTQCREGNAVAVRLWLDNTENDLNQGDDHGFSPLHWACREGRSAVVEMLIMRGARINVMNRGDDTPLHLAASHGHRDIVQKLLQYKADINAVNEHGNVPLHYACFWGQDQVAEDLVANGALVSICNKYGEMPVDKAKAPLRELLRERAEKMGQNLNRIPYKDTFWKGTTRTRPRNGTLNKHSGIDFKQLNFLTKLNENHSGELWKGRWQGNDIVVKVLKVRDWSTRKSRDFNEECPRLRIFSHPNVLPVLGACQSPPAPHPTLITHWMPYGSLYNVLHEGTNFVVDQSQAVKFALDMARGMAFLHTLEPLIPRHALNSRSVMIDEDMTARISMADVKFSFQCPGRMYAPAWVAPEALQKKPEDTNRRSADMWSFAVLLWELVTREVPFADLSNMEIGMKVALEGLRPTIPPGISPHVCKLMKICMNEDPAKRPKFDMIVPILEKMQDK
partner: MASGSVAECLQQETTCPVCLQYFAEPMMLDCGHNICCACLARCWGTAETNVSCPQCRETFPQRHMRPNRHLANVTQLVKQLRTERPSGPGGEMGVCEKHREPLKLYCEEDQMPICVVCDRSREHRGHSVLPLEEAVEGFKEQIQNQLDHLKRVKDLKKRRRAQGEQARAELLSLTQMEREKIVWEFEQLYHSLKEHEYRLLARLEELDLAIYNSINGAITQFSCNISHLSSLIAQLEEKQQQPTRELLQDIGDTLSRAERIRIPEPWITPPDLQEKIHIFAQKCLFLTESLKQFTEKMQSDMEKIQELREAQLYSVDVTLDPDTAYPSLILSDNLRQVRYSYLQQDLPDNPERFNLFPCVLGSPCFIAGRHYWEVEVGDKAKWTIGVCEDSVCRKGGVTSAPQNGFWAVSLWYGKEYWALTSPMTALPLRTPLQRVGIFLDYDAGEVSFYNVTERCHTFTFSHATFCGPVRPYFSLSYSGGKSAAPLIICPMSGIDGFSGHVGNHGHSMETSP
B6: Nuclear protein AMMECR1 (Homo sapiens), Q9Y4X0 (parent)
chain: MAAGCCGVKKQKLSSSPPSGSGGGGGASSSSHCSGESQCRAGELGLGGAGTRLNGLGGLTGGGSGSGCTLSPPQGCGGGGGGIALSPPPSCGVGTLLSTPAAATSSSPSSSSAASSSSPGSRKMVVSAEMCCFCFDVLYCHLYGYQQPRTPRFTNEPYPLFVTWKIGRDKRLRGCIGTFSAMNLHSGLREYTLTSALKDSRFPPMTRDELPRLFCSVSLLTNFEDVCDYLDWEVGVHGIRIEFINEKGSKRTATYLPEVAKEQGWDHIQTIDSLLRKGGYKAPITNEFRKTIKLTRYRSEKMTLSYAEYLAHRQHHHFQNGIGHPLPPYNHYS
B7: Protein DDI1 homolog 1 (Homo sapiens), Q8WTU0 (parent)
chain: MLITVYCVRRDLSEVTFSLQVSPDFELRNFKVLCEAESRVPVEEIQIIHMERLLIEDHCSLGSYGLKDGDIVVLLQKDNVGPRAPGRAPNQPRVDFSGIAVPGTSSSRPQHPGQQQQRTPAAQRSQGLASGEKVAGLQGLGSPALIRSMLLSNPHDLSLLKERNPPLAEALLSGSLETFSQVLMEQQREKALREQERLRLYTADPLDREAQAKIEEEIRQQNIEENMNIAIEEAPESFGQVTMLYINCKVNGHPLKAFVDSGAQMTIMSQACAERCNIMRLVDRRWAGVAKGVGTQRIIGRVHLAQIQIEGDFLQCSFSILEDQPMDMLLGLDMLRRHQCSIDLKKNVLVIGTTGTQTYFLPEGELPLCSRMVSGQDESSDKEITHSVMDSGRKEH
partner: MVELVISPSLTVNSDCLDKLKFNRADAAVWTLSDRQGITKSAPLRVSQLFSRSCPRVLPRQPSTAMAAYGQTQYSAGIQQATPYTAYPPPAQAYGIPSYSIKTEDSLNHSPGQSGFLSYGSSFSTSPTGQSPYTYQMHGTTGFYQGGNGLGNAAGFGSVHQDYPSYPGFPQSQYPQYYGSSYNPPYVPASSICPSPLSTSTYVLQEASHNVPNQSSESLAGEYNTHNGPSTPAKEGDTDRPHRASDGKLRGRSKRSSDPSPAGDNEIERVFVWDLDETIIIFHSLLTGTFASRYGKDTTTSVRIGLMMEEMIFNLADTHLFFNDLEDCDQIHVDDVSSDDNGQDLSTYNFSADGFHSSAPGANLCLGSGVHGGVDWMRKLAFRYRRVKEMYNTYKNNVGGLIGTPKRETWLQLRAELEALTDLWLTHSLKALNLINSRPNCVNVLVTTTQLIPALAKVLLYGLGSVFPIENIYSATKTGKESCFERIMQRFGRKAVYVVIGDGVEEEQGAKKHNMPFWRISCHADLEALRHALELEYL

Variants of: B1
Conditions: with trfm_human MELTF

Row | effect of a mutation on the interaction | Variant
1 | with no effect | A115T

Variants of: B2
Conditions: with pin4_human PIN4, Q9Y237
pin4_human PIN4, Q9Y237, sequence (Q9Y237 whole entry): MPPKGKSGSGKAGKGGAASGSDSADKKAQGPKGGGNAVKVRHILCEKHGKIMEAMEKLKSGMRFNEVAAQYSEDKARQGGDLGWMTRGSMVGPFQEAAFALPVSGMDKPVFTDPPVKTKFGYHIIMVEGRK

Row | effect of a mutation on the interaction | Variant
2 | with no effect | S173C

Variants of: B2
Conditions: with if4e2_human EIF4E2, O60573
if4e2_human EIF4E2, O60573, sequence (O60573 whole entry): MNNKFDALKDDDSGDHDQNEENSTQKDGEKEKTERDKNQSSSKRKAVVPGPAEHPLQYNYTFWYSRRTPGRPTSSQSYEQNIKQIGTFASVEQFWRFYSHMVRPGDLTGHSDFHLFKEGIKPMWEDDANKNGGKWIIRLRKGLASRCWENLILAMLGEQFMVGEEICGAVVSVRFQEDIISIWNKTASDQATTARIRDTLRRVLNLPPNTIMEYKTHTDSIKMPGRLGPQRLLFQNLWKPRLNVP

Row | effect of a mutation on the interaction | Variant
3 | with no effect | S173C

Variants of: B2
Conditions: with mo4l1_human MORF4L1, Q9UBU8
mo4l1_human MORF4L1, Q9UBU8, sequence (Q9UBU8 whole entry): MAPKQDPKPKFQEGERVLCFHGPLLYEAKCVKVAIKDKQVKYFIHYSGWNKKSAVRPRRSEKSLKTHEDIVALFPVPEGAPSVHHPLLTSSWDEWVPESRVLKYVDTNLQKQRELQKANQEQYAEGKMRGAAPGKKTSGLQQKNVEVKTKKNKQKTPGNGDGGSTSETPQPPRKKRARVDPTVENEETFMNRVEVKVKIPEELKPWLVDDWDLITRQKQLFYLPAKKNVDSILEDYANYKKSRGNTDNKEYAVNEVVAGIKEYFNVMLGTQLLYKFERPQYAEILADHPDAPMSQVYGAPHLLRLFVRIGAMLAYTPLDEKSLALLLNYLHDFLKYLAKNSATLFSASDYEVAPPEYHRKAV

Row | effect of a mutation on the interaction | Variant
4 | with no effect | S173C

Variants of: B3
Conditions: with ube2w_human UBE2W

Row | effect of a mutation on the interaction | Variant
5 | with no effect | T20A
6 | with no effect | D202N

Variants of: B4
Conditions: with cep55_human CEP55, Q53EZ4

Row | effect of a mutation on the interaction | Variant
7 | with no effect | G150E

Variants of: B5
Conditions: with tri27_human TRIM27, P14373

Row | effect of a mutation on the interaction | Variant
8 | with no effect | V340G

Variants of: B6
Conditions: with rbpms_human RBPMS

Row | effect of a mutation on the interaction | Variant
9 | with no effect | R207G

Variants of: B7
Conditions: with eya2_human EYA2, O00167

Row | effect of a mutation on the interaction | Variant
10 | with no effect | R208G
11 | with no effect | S63A
12 | with no effect | N228T
